In this assay the target is CD16a-His (human) (UniProt P08637). Put plainly: BLI; CD16a-His (250 ng/mL) immobilised on HIS1K biosensors; analytes at 3200 - 50 nM or 400 - 6.25 nM; 1X kinetics buffer (PBS pH 7.4, 0.02% Tween-20, 0.1% bovine serum albumin); 300 s association, 600 s dissociation; 1:1 fitting model; geometric means. In general terms: In BLI a coated tip is dipped into the sample, and binding shifts an interference pattern.

Experimental findings from publication PMC11035769 are described below.

UniProt P08637, sequence (P08637 17-208): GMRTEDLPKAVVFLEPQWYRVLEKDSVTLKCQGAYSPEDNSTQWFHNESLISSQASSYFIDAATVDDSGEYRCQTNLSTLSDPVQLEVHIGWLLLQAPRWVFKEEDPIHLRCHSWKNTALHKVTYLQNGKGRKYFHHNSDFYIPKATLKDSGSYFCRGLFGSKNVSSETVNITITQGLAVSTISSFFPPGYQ

By Kd is commonly meant the constant that tells how readily two partners part at equilibrium. Usually koff stands for the rate constant with which the complex falls apart. Read a high koff as a short-lived complex. Usually kon stands for a measure of how fast the partners come together. “Immune Globulin Intravenous (Human) (antibody)”: the Kd was 0.244 µM, the koff is 0.0402 s⁻¹ and the kon stood at 165000 M⁻¹ s⁻¹.
